Experiment [1] relates to vancomycin intermediate sensitivity Staphylococcus aureus (VISA) and vancomycin resistant Staphylococcus aureus (VRSA) strains. The experiment in a line: in vitro tests / standard MIC analysis of staphylococci (FIG. 18). The format is cell-based. The note with it: comparable in vitro tests. The method, then:
FIG. 18. PlySS2 was tested by standard MIC analysis for its ability to kill strains of staphylococci. Included in the testing were resistant staphylococci such as Vancomycin resistant (VRSA), Vancomycin intermediate (VISA) and methicillin resistant (MRSA) staphylococci. The three VRSA strains tested represent half of all known isolates.

The subject of experiment [2] is cultures from the oral cavities of two rats. The experiment in a line: rat oral cavity microbiota study, drops on culture lawns. The note with it: 10 μL PlySs2 drops on BHI agar lawns; the one culture confirmed as S. aureus. Type of experiment: cell-based, rat oral bacteria.
Another experiment concerns S. aureus strains. The experiment in a line: PlySs2 lytic activity against species and strains (FIG. 25). Type of experiment: cell-based, Staphylococcus aureus. The conditions noted are these: all tested S. aureus strains; 32 μg/ml, 60 minutes. The method, then:
FIG. 25 provides PlySs2 activity against different species and strains. Log-phase cultures were exposed to 32 μg/ml PlySs2 for 60 minutes in phosphate buffer. The final OD600 of the treated samples were divided by the final OD600 of the untreated samples to generate the normalized values above. Multiple Staphylococci (including, but not limited to: MRSA, MSSA, and VISA), Streptococci, Listeria, Enterococci, and Bacilli were tested for susceptibility to PlySs2 activity. Escherichia and Pseudomonas were tested as Gram-negative controls.

The test system of a further experiment is S. suis strain 7997. The experiment in a line: PlySs2 OD600 lytic activity test, various concentrations. The format is cell-based, Streptococcus suis.
A further experiment relates to S. suis 7997 (ST9). The experiment in a line: ΔPlySs1 CFU analysis, 1 hr treatment. The format is cell-based, Streptococcus suis. How it is done:
(§1) Truncated PlySs1(ΔPlySs1) lysin activity was determined against different cell types. Given the above experiments, the following optimal buffering conditions were employed for all further in vitro experiments with ΔPlySs1: 20 mM phosphate buffer, pH=7.8, 2 mM EDTA. A range of lysin concentrations, from 6.5-130 μg/ml, were introduced to live S. suis cells in this buffer. Three strains were considered particularly relevant: 7711, the serotype 7 strain that encodes PlySs1; S735, the serotype 2 reference strain; and 7997, a highly virulent serotype 9 strain. In terms of bacterial viability, only the highest PlySs1-concentration (130 μg/ml) led to a >90% decrease in CFUs for 7711, S735, and 7997 after 1 hr treatment (TABLE 2). The lysin was also tested against actively-dividing cells in broth culture (strain 7711) (FIG. 20).
(§2) For two ΔPlySs1 concentrations (130 and 13 μg/ml), CFU analysis was conducted on S. suis strains S735, 7997, and 7711 after 1 hr treatment (optimal buffering conditions). In each experiment, the percentage-decrease in CFUs was determined for the treated sample versus the untreated. The range of the values observed (across 3 independent experiments) is reported here for each strain. The serotype of each strain is indicated in parentheses.

In another experiment the test system is S. suis S735 (ST2). The experiment in a line: ΔPlySs1 CFU analysis, 1 hr treatment. Type of experiment: cell-based, Streptococcus suis. The method, then:
as §1, §2

The test system of another experiment is S. suis 7711 (ST7). The experiment in a line: ΔPlySs1 CFU analysis, 1 hr treatment. Type of experiment: cell-based, Streptococcus suis. The method, then: as §1, §2
The next experiment relates to M. luteus 4698. The experiment in a line: ΔPlySs1 OD600 lysis, 1 hr, optimal buffering conditions. Type of experiment: cell-based.
The next experiment concerns S. pyogenes A486. The description is as above. The format is cell-based, Streptococcus pyogenes.
A further experiment concerns B. cereus 14579. The description is as above. Type of experiment: cell-based, Bacillus cereus.
For another experiment, the system named is S. dysgalactiae 21597. The description is as above. Type of experiment: cell-based, Streptococcus dysgalactiae.
The next experiment has as its system B. thuringiensis HD73. The experiment is described as above. Type of experiment: cell-based, Bacillus thuringiensis.

B1: PlySs2: Streptococcus suis prophage lysin, SEQ ID NO:3; N-terminal CHAP domain and C-terminal SH3-type 5 domain (protein, listed as Streptococcus suis)
chain: MTTVNEALNNVRAQVGSGVSVGNGECYALASWYERMISPDATVGLGAGVGWVSGAIGDTISAKNIGSSYNWQANGWTVSTSGPFKAGQIVTLGATPGNPYGHVVIVEAVDGDRLTILEQNYGGKRYPVRNYYSAASYRQQVVHYITPPGTVAQSAPNLAGSRSYRETGTMTVTVDALNVRRAPNTSGEIVAVYKRGESFDYDTVIIDVNGYVWVSYIGGSGKRNYVATGATKDGKRFGNAWGTFK
In the case of B1, in [1], the “effectiveness against VISA and VRSA” value is listed as “similarly effective”. The “clearing zone around drops on lawns of 6 rat oral cultures” value in experiment [2] was “only appeared on one culture”. Further, in the experiment with S. aureus strains, the “susceptibility to PlySs2 lysis” value is listed as “highly susceptible”. For the same molecule, the “concentration giving acute lytic activity” value with S. suis strain 7997 was not below 8 µg/mL.

B2: ΔPlySs1: truncated PlySs1 lysin, SEQ ID NO:2, N-terminal 254 amino acids: only N-terminal enzymatic and central binding domains (protein, listed as Streptococcus suis)
chain: MTINLETSIRWMSDRVGKVSYSMDYRNGPNSYDCSSAVYYALMAGGAISAGWAVNTEYMHDWLIRNGYVLVAENKPFNAQRHDVCILGKRGYSSGAGGHVVIFVDNVNVIHCNYARNGISIDNYNQVHRGMYYYLYRPANQPSISNKSLDQLVKETLAGVHGNGDTRKASLGSQYEAVMAVINGKASASEKSDEELAREVLAGKHGAGEDRKRSLGPRYEPVQAKVNELLKAKEKPSETAKNEPQTVQFKEDGDL
For B2, the “percentage-decrease in CFUs, range of 3 experiments” value is listed as 16.8%-30.3% in the experiment on S. suis 7997 (ST9) (13 μg/ml); 89.9%-93.9% in the experiment on S. suis 7997 (ST9) (130 μg/ml); more than 90% with S. suis 7997 (ST9) (130 μg/ml, listed as PlySs1); 80.4%-92.6% with S. suis S735 (ST2) (13 μg/ml); 95.4%-99.5% with S. suis S735 (ST2) (130 μg/ml); more than 90% with S. suis S735 (ST2) (130 μg/ml, listed as PlySs1). Moreover, the “percentage-decrease in CFUs, range of 3 experiments” value with S. suis 7711 (ST7) (13 μg/ml) is reported as 0%-35.6%; in the experiment on S. suis 7711 (ST7) (130 μg/ml), 95.3%-99.2%; in the experiment with S. suis 7711 (ST7) (130 μg/ml, listed as PlySs1), more than 90%. In addition, the “lysis value after 1 hr (treated/untreated OD600 ratio)” value in the experiment on M. luteus 4698 (6.5 μg/ml) is recorded as 0.84; in the experiment on M. luteus 4698 (13 μg/ml), 0.90; in the experiment with M. luteus 4698 (30 μg/ml), 0.83; in the experiment with M. luteus 4698 (65 μg/ml), 0.87; in the experiment on M. luteus 4698 (130 μg/ml) it was 0.82; in the experiment on S. pyogenes A486 (6.5 μg/ml) it was 0.12. The “lysis value after 1 hr (treated/untreated OD600 ratio)” value in the experiment on S. pyogenes A486 (13 μg/ml) came out at 0.13; with S. pyogenes A486 (30 μg/ml), 0.13; in the experiment with S. pyogenes A486 (65 μg/ml), 0.11; in the experiment with S. pyogenes A486 (130 μg/ml), 0.10; with B. cereus 14579 (6.5 μg/ml) it was 0.93; in the experiment on B. cereus 14579 (13 μg/ml), 0.92. In addition, the “lysis value after 1 hr (treated/untreated OD600 ratio)” value in the experiment on B. cereus 14579 (30 μg/ml) came to 0.86; in the experiment on B. cereus 14579 (65 μg/ml), 0.90; in the experiment with B. cereus 14579 (130 μg/ml), 0.86; in the experiment with S. dysgalactiae 21597 (6.5 μg/ml), 0.26; with S. dysgalactiae 21597 (13 μg/ml), 0.18; with S. dysgalactiae 21597 (30 μg/ml) it was 0.12. Further, the “lysis value after 1 hr (treated/untreated OD600 ratio)” value in the experiment with S. dysgalactiae 21597 (65 μg/ml) is 0.10; in the experiment on S. dysgalactiae 21597 (130 μg/ml), 0.09; with B. thuringiensis HD73 (6.5 μg/ml), 0.99; in the experiment with B. thuringiensis HD73 (13 μg/ml), 0.98; in the experiment with B. thuringiensis HD73 (30 μg/ml), 0.93; with B. thuringiensis HD73 (65 μg/ml), 0.86. Besides, in the experiment with B. thuringiensis HD73 (130 μg/ml), the “lysis value after 1 hr (treated/untreated OD600 ratio)” value was 0.60.
